Measurements taken from patent publication US7105166 (Bristol-Myers Squibb, dated 2006).

B1: CTLA4/CD28Ig hybrid fusion protein HS4 (Fc fusion, not shown: a dimerising Fc or GST)
chain: NKILVKQSPMLVAYDNAYNLSCKYSYNLFSREFRASLHKGLDSAVEVCVVYGNYSQQLQVYSKTGFNCDGKLGNESVTFYLQNLYVNQTDIYFCKIELMYPPPYYLGIGNGTQIYVIDPEPCPDSD
notes: mature numbering, not counted on the entries
B2: CTLA4/CD28Ig hybrid fusion protein HS6 (Fc fusion, not shown: a dimerising Fc or GST)
chain: MHVAQPAVVLASSRGIASFVCEYSYNLFSREVRVTVLRQADSQVTEVCAATYMMGNELTFLDDSICTGTSSGNQVNLTIQGLRAMDTGLYICKVELMYPPPYYLGIGNGTQIYVIDPEPCPDSD
notes: as for B1
B3: CTLA4/CD28Ig hybrid fusion protein HS3 (Fc fusion, not shown: a dimerising Fc or GST)
chain: MHVAQPAVVLASSRGIASFVCEYASPGKATEVRVTVLRQADSQVTEVCAATYMMGNELTFLDDSICTGTSSGNQVNLTIQGLRAMDTGLYICKVEVMYPPPYLDNEKSNGTIIHVKGKHLCPS
notes: as for B1
B4: CTLA4/CD28Ig hybrid fusion protein HS4-A (Fc fusion, not shown: a dimerising Fc or GST)
chain: NKILVKQSPMLVAYDNAYNLSCKYSYNLFSREFRASLHKGLDSAVEVCVVYGNYSQQLQVYSKTGFNCDGKLGNESVTFYLQNLYVNQTDIYFCKIELMYPPPYYLGIGNGTQIHVKGKHLCPS
notes: as for B1
B5: CTLA4/CD28Ig hybrid fusion protein HS2 (Fc fusion, not shown: a dimerising Fc or GST)
chain: MHVAQPAVVLASSRGIASFVCKYSYNLFSREFRASLHKGLDSAVEVCVVYGNYSQQLQVYSKTGFNCDGKLGNESVTFYLQNLYVNQTDIYFCKIELMYPPPYYLGIGNGTQIYVIDPEPCPDSD
notes: as for B1
B6: CD7 expressed on transfected COS cells (receptor, UniProt P09564 26-240, looked up)
chain: AQEVQQSPHCTTVPVGASVNITCSTSGGLRGIYLRQLGPQPQDIIYYEDGVVPTTDRRFRGRIDFSGSQDNLTITMHRLQLSDTGTYTCQAITEVNVYGSGTLVLVTEEQSQGWHRCSDAPPRASALPAPPTGSALPDPQTASALPDPPAASALPAALAVISFLLGLGLGVACVLARTQIKKLCSWRDKNSAACVVYEDMSHSRCNTLSSPNQYQ
notes: whole, on cells; Control transfectant; also called CD7-transfected COS cells
B7: CTLA4/CD28Ig hybrid fusion protein HS1 (Fc fusion, not shown: a dimerising Fc or GST)
chain: NKILVKQSPMLVAYDNAYNLSCKYASPGKATEVRVTVLRQADSQVTEVCAATYMMGNELTFLDDSICTGTSSGNQVNLTIQGLRAMDTGLYICKVEVMYPPPYLDNEKSNGTIIHVKGKHLCPS
notes: as for B1
B8: B7 antigen (B7-1, CD80) expressed on cells (ligand, human, UniProt P33681 35-288, looked up)
chain: VIHVTKEVKEVATLSCGHNVSVEELAQTRIYWQKEKKMVLTMMSGDMNIWPEYKNRTIFDITNNLSIVILALRPSDEGTYECVVLKYEKDAFKREHLAEVTLSVKADFPTPSISDFEIPTSNIRRIICSTSGGFPEPHLSWLENGEELNAINTTVSQDPETELYAVSSKLDFNMTTNHSFMCLIKYGHLRVNQTFNWNTTKQEHFPDNLLPSWAITLISVNGIFVICCLTYCFAPRCRERRRNERLRRESVRPV
notes: whole, on cells; Stably transfected CHO cells; in the MLR and IgM assays the B7 antigen of the stimulating B cells; also called B7^+ CHO cells; B7-1 positive CHO cells

Assays:
[1] = target: B8; assay: enzyme immunoassay on fixed B7-1+ CHO cells
[2] = target: B8; assay: B7-1+ CHO cell enzyme immunoassay; binding activity relative to CTLA4Ig, from the concentrations giving the same A450
CD5Ig [3] = target: T1, CD5Ig (human, UniProt P06127 25-371; P01857 99-330 = IgG part); assay: indirect immunofluorescence, FACS, transfected COS cells, FITC anti-mouse and anti-human Ig second step
T1 construct: range 1-347;domain: hinge, CH2 and CH3 regions; Control fusion protein; also called control CD5Ig fusion protein
Method: Immunostaining and FACS^R Analysis. Prior to staining, COS or CHO cells were removed from their culture vessels by incubation in PBS containing 10 mM EDTA. Cells were first incubated with mAbs or Ig fusion proteins at 10 micro grams/ml in DMEM containing 10% FBS for 1–2 hr at 4 degrees C. Cells were then washed, and incubated for an additional 0.5–2 hrs at 4 degrees C. with FITC-conjugated goat anti-mouse immunoglobulin or with FITC-conjugated goat anti-human IgCγ serum (both from Tago, Burlingame, Calif.). When binding of both mAbs and Ig fusion proteins were measured in the same experiment, FITC-conjugated anti-mouse and anti-human second step reagents were mixed together before use. Fluorescence on a total of 10,000 cells was then analyzed by FACS^R.
Cells were then washed and binding was detected by a mixture of FITC-conjugated goat anti-mouse Ig and FITC-conjugated goat anti-human Ig second step reagents. Transfected cells were tested for expression of the appropriate cell surface markers by indirect immunostaining and fluorescence was measured using FACS^R analysis as described above.

CD5Ig [4] = target: T1, CD5Ig; assay: indirect immunofluorescence, FACS, FITC goat anti-human Ig second step
Method: Prior to staining, COS or CHO cells were removed from their culture vessels by incubation in PBS containing 10 mM EDTA. Cells were first incubated with mAbs or Ig fusion proteins at 10 micro grams/ml in DMEM containing 10% FBS for 1–2 hr at 4 degrees C. Cells were then washed, and incubated for an additional 0.5–2 hrs at 4 degrees C. with FITC-conjugated goat anti-mouse immunoglobulin or with FITC-conjugated goat anti-human IgCγ serum (both from Tago, Burlingame, Calif.). When binding of both mAbs and Ig fusion proteins were measured in the same experiment, FITC-conjugated anti-mouse and anti-human second step reagents were mixed together before use. Fluorescence on a total of 10,000 cells was then analyzed by FACS^R.
Binding was detected by FACS^R following addition of FITC-conjugated goat anti-human Ig second step reagents. A total of 10,000 stained cells were analyzed by FACS^R.

T1 sequence (P06127 other isoform, or with tags, fused parts or gaps limits assumed): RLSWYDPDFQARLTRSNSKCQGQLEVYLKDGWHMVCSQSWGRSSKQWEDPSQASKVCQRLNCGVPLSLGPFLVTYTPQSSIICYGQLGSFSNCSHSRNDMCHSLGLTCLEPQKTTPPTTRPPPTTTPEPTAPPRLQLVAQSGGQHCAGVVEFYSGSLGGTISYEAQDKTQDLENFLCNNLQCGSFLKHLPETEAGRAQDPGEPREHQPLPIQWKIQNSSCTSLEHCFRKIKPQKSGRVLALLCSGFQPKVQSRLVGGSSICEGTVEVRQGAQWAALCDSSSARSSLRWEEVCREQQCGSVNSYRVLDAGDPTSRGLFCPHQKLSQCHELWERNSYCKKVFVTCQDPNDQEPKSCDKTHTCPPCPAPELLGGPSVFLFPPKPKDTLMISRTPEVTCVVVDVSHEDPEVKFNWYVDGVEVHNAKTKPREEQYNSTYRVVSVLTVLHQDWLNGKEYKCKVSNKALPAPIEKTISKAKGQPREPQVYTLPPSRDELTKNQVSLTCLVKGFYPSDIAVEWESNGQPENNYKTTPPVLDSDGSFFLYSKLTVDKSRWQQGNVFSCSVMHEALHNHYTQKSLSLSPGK

% B7 binding activity [2] [%]	Binder	also measured
16	B1	fold less binding than wild type CTLA4Ig [1]: ~5 fold; increase in binding relative to CD28Ig [1]: ~2.5 orders of magnitude
20	B2	
< 0.1	B3	
2	B4	% of wild type binding [1]: ~2%
27	B5	
	B6	binding result (CD5Ig [3]): no binding (tested: 10 µg/ml (from the text))
< 0.1	B7	
	B8	binding result (CD5Ig [4]): no binding (tested: 10 µg/ml (from the text))
